Assay results reported in patent US20240082342A1, “PEPTIDE THERAPEUTICS FOR INCREASING LUNG CELL VIABILITY” (BOARD OF REGENTS, THE UNIVERSITY OF TEXAS SYSTEM, priority 2018, published 2024).

Assays:
[1] = test system: LECs; conditions: in vitro and in vivo; cited from earlier work
[2] = test system: BAL cells; test: BAL cell counts in mice treated with IL-17A or Pre-miR-34a; assay type: in vivo, mouse
[3] = test system: ATII cells and BALF of IL-17A treated mice; test: IL-17A-induced lung injury in mice; assay type: in vivo, mouse; conditions: WT mice exposed to recombinant IL-17A, 24 h
Description: IL-17A is induced in passive tobacco smoke (PTS) exposed lung injury. […] Further, IL-17A induced ^p15Sp53 was inhibited following treatment of mice CSP7 when compared with those treated with saline and control peptide. To further test whether IL-17A induced ^p15Sp53 alters PAI-1 expression and ATII apoptosis, ATII cells of IL-17A treated mice for PAI-1 and apoptotic markers were analyzed. IL-17A induced the expression of PAI-1 and cl.Cas-3, and inhibited Sirt-1 expression in ATII cells. […] In addition, CSP7 treatment found to inhibit serine phosphorylation of p53 by neutralizing elevated IL-17A due to PTS exposure.
To test the importance of miR-34a mediated deacetylation of p53 IL-17A or PTS induced lung injury, miR34a conditional knockout mice were treated with tamoxifen. miR34a conditional knockout mice treated with IL-17A (3 μg/mice) was administered with CSP7 and CP a day later. ATII cells isolated from these mice were screened for PAI-1, Sirt-1 and apoptotic markers. […] Further, CSP7 treatment had little effect in miR-34a^cKo mice since these mice resist IL-17A or PTS injury.

[4] = test system: A2ECs treated with IL-17A; test: A2ECs exposed to IL-17A in vitro; assay type: cell-based, mouse
Description: FIGS. 49A-49B show the role of IL-17A in PTS-induced p53, PAI-1 expression, and apoptosis in A2ECs. (A) IL-17A^−/− mice resist PTS-induced p53 expression and apoptosis in A2ECs. Mice were kept in ambient AIR or exposed to 20 weeks of PTS. A2ECs isolated from WT and IL-17A^−/− mice in AIR or exposed to PTS were analyzed for acetylated/total p53, Sirt1 and activated caspase-3 to assess apoptosis by Western blotting. (B) CSP inhibits IL-17A-induced p53 and PAI-1 expression and apoptosis in A2ECs in vitro. A2ECs isolated from WT mice were treated with PBS or IL-17A (100 ng/ml) in the presence or absence of CSP or control peptide, CP for 24 h in culture dishes. A2EC lysates were immunoblotted for p53, PAI-1, Cl./total caspase-3 and β-actin. WT mice exposed to IL-17A (FIG. 48D) and PTS (FIG. 46A) induce p53 acetylation and Cav1 expression, while inhibiting Sirt1 in A2ECs.
FIGS. 58A-58B show a 7-amino acid fragment of CSP, CSP7 Inhibits IL-17A-induced A2EC apoptosis. (A) Fragments of CSP were synthesized as shown. (B) A2ECs were treated with CSP or its fragments, or CP, 2 h after exposure of cells to IL-17A. A2EC lysates were immunoblotted for acetylated/total p53 and active/total caspase-3 24 h after IL-17A exposure. β-actin levels were evaluated to assess equal loading.
Increased p53 and apoptosis in A2ECs of mice exposed to PTS or IL-17A provided evidence that PTS acts by increasing IL-17A. To confirm that increased IL-17A contributes to the induction of p53 and PAI-1 expression, and apoptosis in A2ECs during PTS-induced lung injury, IL-17A-deficient mice were exposed to 20 weeks of PTS and control mice were kept in ambient air. A2ECs were tested for p53^AC, p53 and Sirt1 expression, and apoptosis. The responses were compared with changes in A2ECs isolated from WT mice exposed to 20 weeks of PTS or AIR. There was marked induction of p53^AC and p53 levels, and apoptosis with parallel suppression of Sirt1 expression in WT mice exposed to 20 weeks of PTS. […] To confirm mitigation of PTS induced lung injury by CSP or CSP7 involves suppression of IL-17A-induced p53, PAI-1 and apoptosis, A2ECs isolated from WT mice were next treated with IL-17A (100 ng/ml) with or without CSP, CSP7 or CP. Control cells were treated with vehicle (PBS) alone. The A2EC lysates were tested for p53 and p53-mediated downstream induction of PAI-1, and apoptosis. […] Further, induction of miR-34a increased p53 and apoptosis in A2ECs without exposure to tobacco smoke, while inhibition of miR-34a using miR-34a antisense (miR-34a-AS) reduced cigarette smoke induced p53 expression and apoptosis. Results of both in vitro and in vivo experiments support an intricate link between miR-34a, p53^AC, p53 and p53-mediated induction of PAI-1 expression, and A2EC apoptosis during PTS lung injury.

Molecule: NYHYLESSMTALYTLGH (listed as Homo sapiens) [PP-2, 17 residue peptide]
- BLM-induced apoptosis of LECs and subsequent pulmonary fibrosis [1]: protected LECs from BLM-induced apoptosis in vitro and in vivo

B1: IL-17A: recombinant interleukin 17A used to induce A2C injury in vitro and in mice (protein, UniProt Q62386 26-158, looked up)
Interleukin-17A: AAIIPQSSACPNTEAKDFLQNVKVNLKVFNSLGAKVSSRRPSDYLNRSTSPWTLHRNEDPDRYPSVIWEAQCRHQRCVNAEGKLDHHMNSVLIQQEILVLKREPESCPFTFRVEKMLVGVGCTCVASIVRQAA
- percentage of PMN in total BAL cells [2]: 11.27%
- total BAL cells [2]: two-fold increase
- total and acetylated p53, apoptosis and Cav1 expression in A2ECs [3]: marked increase in total and acetylated p53, apoptosis and induced Cav1 expression
- PAI-1 expression or apoptosis ([4]; A2ECs lacking p53 expression): failed to induce PAI-1 expression or apoptosis
- p53 and PAI-1 expression and apoptosis ([4]; mouse and human A2ECs, IL-17A alone): induced expression of both p53 and PAI-1, and also apoptosis
